Test results as given in patent publication US7119182 (University of California, dated 2006).
Square brackets hold non-standard residues; d marks the D form. Ends that are not written are not given here. * marks the point of attachment. SMeMpr = S-methyl-3-mercaptopropionic acid, CSCCC(=O)*; 2‑Mba = 2-mercaptobenzoic acid, O=C(c1ccccc1S)*; Cha = N[C@@H](CC1CCCCC1)C(=O)O; Mpa = O=C(O)CCS

T1: human thrombin receptor (human, UniProt P25116 42-425)
T1 chain: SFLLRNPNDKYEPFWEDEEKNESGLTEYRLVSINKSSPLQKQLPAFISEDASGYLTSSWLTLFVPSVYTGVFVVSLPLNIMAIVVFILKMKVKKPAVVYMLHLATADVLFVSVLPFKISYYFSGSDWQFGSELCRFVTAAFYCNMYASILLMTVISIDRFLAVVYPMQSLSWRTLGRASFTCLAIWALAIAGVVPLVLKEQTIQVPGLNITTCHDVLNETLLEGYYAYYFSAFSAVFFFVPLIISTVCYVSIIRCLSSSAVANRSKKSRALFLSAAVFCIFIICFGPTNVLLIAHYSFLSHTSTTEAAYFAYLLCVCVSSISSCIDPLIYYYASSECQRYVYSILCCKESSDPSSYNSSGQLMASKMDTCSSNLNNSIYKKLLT

T2: mutant thrombin receptor with the amino acid substitution R41A (human, UniProt P25116 22-425, limits assumed)
T2 chain: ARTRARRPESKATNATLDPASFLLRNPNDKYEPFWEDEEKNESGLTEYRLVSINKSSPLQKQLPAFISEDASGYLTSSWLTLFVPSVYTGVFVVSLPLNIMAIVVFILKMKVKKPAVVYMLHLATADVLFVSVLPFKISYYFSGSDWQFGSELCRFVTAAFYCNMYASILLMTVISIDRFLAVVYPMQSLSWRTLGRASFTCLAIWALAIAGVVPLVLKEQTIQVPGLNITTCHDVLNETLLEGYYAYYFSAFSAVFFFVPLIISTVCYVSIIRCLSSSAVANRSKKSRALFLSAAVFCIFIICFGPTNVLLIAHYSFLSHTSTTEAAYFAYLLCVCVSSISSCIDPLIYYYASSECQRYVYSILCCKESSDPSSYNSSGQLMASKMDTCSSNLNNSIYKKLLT

B1: Mpr-F(Cha) (Cha)RNPNAK-NH2 (peptide)
peptide: [Mpa]F[Cha][Cha]RNPNAK-NH2
SMILES: C[C@H](NC(=O)[C@H](CC(N)=O)NC(=O)[C@@H]1CCCN1C(=O)[C@H](CC(N)=O)NC(=O)[C@H](CCCNC(=N)N)NC(=O)[C@H](CC1CCCCC1)NC(=O)[C@H](CC1CCCCC1)NC(=O)[C@H](Cc1ccccc1)NC(=O)CCS)C(=O)N[C@@H](CCCCN)C(N)=O
B2: Mpr-F(Cha) (Cha)RNPNDA-NH2 (peptide)
peptide: [Mpa]F[Cha][Cha]RNPNDA-NH2
SMILES: C[C@H](NC(=O)[C@H](CC(=O)O)NC(=O)[C@H](CC(N)=O)NC(=O)[C@@H]1CCCN1C(=O)[C@H](CC(N)=O)NC(=O)[C@H](CCCNC(=N)N)NC(=O)[C@H](CC1CCCCC1)NC(=O)[C@H](CC1CCCCC1)NC(=O)[C@H](Cc1ccccc1)NC(=O)CCS)C(N)=O
B3: Mpr-F(Cha) (Cha)RKPNDA-NH2 (peptide)
peptide: [Mpa]F[Cha][Cha]RKPNDA-NH2
SMILES: C[C@H](NC(=O)[C@H](CC(=O)O)NC(=O)[C@H](CC(N)=O)NC(=O)[C@@H]1CCCN1C(=O)[C@H](CCCCN)NC(=O)[C@H](CCCNC(=N)N)NC(=O)[C@H](CC1CCCCC1)NC(=O)[C@H](CC1CCCCC1)NC(=O)[C@H](Cc1ccccc1)NC(=O)CCS)C(N)=O
B4: (SMeMpr)-F(Cha)(Cha)RKPNDK-NH2 (peptide)
peptide: SMeMpr-F[Cha][Cha]RKPNDK-NH2
SMILES: CSCCC(=O)N[C@@H](Cc1ccccc1)C(=O)N[C@@H](CC1CCCCC1)C(=O)N[C@@H](CC1CCCCC1)C(=O)N[C@@H](CCCNC(=N)N)C(=O)N[C@@H](CCCCN)C(=O)N1CCC[C@H]1C(=O)N[C@@H](CC(N)=O)C(=O)N[C@@H](CC(=O)O)C(=O)N[C@@H](CCCCN)C(N)=O
B5: (2-Mba)-F(Cha)(Cha)RKPNDK-NH2 (peptide)
peptide: {2‑Mba}-F[Cha][Cha]RKPNDK-NH2
SMILES: N=C(N)NCCC[C@H](NC(=O)[C@H](CC1CCCCC1)NC(=O)[C@H](CC1CCCCC1)NC(=O)[C@H](Cc1ccccc1)NC(=O)c1ccccc1S)C(=O)N[C@@H](CCCCN)C(=O)N1CCC[C@H]1C(=O)N[C@@H](CC(N)=O)C(=O)N[C@@H](CC(=O)O)C(=O)N[C@@H](CCCCN)C(N)=O
B6: Mpr-FLLRNPNDKYE-NH2 (peptide)
peptide: [Mpa]FLLRNPNDKYE-NH2
SMILES: CC(C)C[C@H](NC(=O)[C@H](Cc1ccccc1)NC(=O)CCS)C(=O)N[C@@H](CC(C)C)C(=O)N[C@@H](CCCNC(=N)N)C(=O)N[C@@H](CC(N)=O)C(=O)N1CCC[C@H]1C(=O)N[C@@H](CC(N)=O)C(=O)N[C@@H](CC(=O)O)C(=O)N[C@@H](CCCCN)C(=O)N[C@@H](Cc1ccc(O)cc1)C(=O)N[C@@H](CCC(=O)O)C(N)=O

Tests used:
Experiment in all cases: cell-based or functional assay
[1] = biological target: T1, human thrombin receptor
[2] = biological target: T1, human thrombin receptor
[3] = biological target: T2, mutant thrombin receptor with the amino …
[4] = biological target: thrombin (UniProt P00734 364-622; P00734 328-363)

| Binder | IC50 (50% inhibition of thrombin-induced platelet activation or aggregation) [1] | also measured |
| --- | --- | --- |
| B1 | > 100 µM | – |
| B2 | 50 µM | – |
| [Mpa]F[Cha][Cha]RKPNEK-NH2 [Mpr-P(Cha) (Cha)RKPNEK-NH2] | 10 µM | – |
| B3 | 50 µM | – |
| {Cam‑Mpr}-FLLR-NH2 [[Cam-Mpr]-FLLR-NH2] | 1000 µM | – |
| Pivaloyl-FLLR-NH2 [Pivaloyl-FLLR-NH2] | 1000 µM | – |
| B4 | 10 µM | – |
| B5 | 50 µM | – |
| SFLLRNPNDKYEPF ["new amino-terminal" peptide SFLLRNPNDKYEPF] | – | Fold increase in 45Ca (release by oocytes expressing receptor cRNA); “SFLL” peptide 40 µM [2]: 32 fold; Fold increase in 45Ca (release by oocytes expressing receptor cRNA); “SFLL” peptide 200 µM [2]: 42 fold; Fold increase in 45Ca (release by oocytes expressing receptor cRNA); “SFLL” peptide 200 µM [3]: 53 fold |
| LDPRPFLLRNPNDKYEPFWEDEEKNES | – | IC50, inhibition of thrombin-induced platelet ATP secretion (peptide preincubated with thrombin) [4]: ~0.5 µM |
| LDPRPFLL | – | IC50, inhibition of thrombin-induced platelet ATP secretion (peptide preincubated with thrombin) [4]: ~200 µM |
| [Mpa]FLLRNPNDK [Mpr-FLLRNPNDK] | 80 µM | – |
| B6 | 108 µM | – |
